Data set [1] concerns the target MS2 bacteriophage coat protein (Bacteriophage MS2) (UniProt P03612). The note with it: likely CITED; stated Kd for cognate site.
The target of data set [2] is hnRNP A1/A2 (Homo sapiens) (UniProt P09651+P22626). The following applies: apparent Kd, likely CITED; stated for A1 and A2; excess TS10 abolishes ABS stimulation in HeLa extract.

Some results are limits rather than exact numbers.

Sequence of hnRNP A1/A2 (Homo sapiens) (P09651 whole entry, chain 1 of 2): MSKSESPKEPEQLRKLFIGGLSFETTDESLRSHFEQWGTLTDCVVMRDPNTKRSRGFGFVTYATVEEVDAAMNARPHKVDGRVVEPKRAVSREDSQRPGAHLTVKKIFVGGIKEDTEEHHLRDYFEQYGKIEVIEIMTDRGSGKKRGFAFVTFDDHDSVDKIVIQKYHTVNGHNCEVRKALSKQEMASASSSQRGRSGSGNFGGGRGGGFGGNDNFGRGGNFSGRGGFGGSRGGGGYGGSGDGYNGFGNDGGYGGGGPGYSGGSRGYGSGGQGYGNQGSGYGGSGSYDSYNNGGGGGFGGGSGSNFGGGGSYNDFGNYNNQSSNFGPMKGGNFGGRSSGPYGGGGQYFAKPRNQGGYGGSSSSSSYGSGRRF
Sequence of hnRNP A1/A2 (Homo sapiens) (P22626 whole entry, chain 2 of 2): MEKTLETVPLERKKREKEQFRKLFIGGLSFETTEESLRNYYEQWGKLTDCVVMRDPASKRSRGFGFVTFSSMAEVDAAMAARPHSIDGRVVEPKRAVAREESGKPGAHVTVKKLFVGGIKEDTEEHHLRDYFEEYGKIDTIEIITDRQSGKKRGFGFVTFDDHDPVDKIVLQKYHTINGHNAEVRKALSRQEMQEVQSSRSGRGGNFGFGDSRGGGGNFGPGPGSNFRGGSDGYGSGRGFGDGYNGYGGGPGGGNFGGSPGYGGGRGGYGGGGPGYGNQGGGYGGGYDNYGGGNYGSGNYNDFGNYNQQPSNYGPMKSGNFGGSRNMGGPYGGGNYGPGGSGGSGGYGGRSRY
Sequence of MS2 bacteriophage coat protein (Bacteriophage MS2) (P03612 2-130): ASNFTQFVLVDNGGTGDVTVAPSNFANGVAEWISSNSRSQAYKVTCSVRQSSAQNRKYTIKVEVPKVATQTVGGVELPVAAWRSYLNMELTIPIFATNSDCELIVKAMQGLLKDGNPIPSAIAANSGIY

As for “MS2 stem-loop binding site in C5 pre-mRNA (position -26)”, in data set [1], the Kd was 1 nM.

For “TS10 telomeric DNA oligo (60 nt, nine A1 binding sites)”, the Kd in data set [2] is below 5 nM.

Source of the values: patent publication US20060058253.
